Experimental data as given in US20250025506A1 (INNOVATIVE CELLULAR THERAPEUTICS, published 2025).
One block for each binder: values may come before it.

Target: T1, UPK2 antigen on 293T cells (6600, Lenti-UPK2 antigen plasmid) (Homo sapiens (Human), UniProt O00526 85-184)
T1 construct: 293T cells transiently transfected with plasmid 6600 or infected with virus packaged from it; also called UPK2 target cells; 293T cells with UPK2 target
T1 sequence: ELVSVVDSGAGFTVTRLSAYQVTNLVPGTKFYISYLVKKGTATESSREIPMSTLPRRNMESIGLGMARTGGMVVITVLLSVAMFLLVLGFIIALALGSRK
Assay: flow cytometry, histogram of 293T-6600 cells (293T transiently transfected with plasmid 6600, UPK2-noflag) stained with the antibody; goat-anti-human FITC secondary per paragraph 179

percent of cells in the positive gate: 27%
B1: S3A4 recombinant anti-UPK2 monoclonal antibody (murine-human chimeric) (antibody, V domains shown)
VH: EVKLKQSGAELVKPGASVKLSCKASGYTLTSYYIYWVKQRPGQGLEWIGGISPSNGNTYFTEKFKNMATLTVDKSSNTAYMQLSSLTSEDSAVYYCARNYDYDVGFAYWGQGTLVTVSS
VL: DVVMTQTPLSLPVSLGDQASISCRSSQSIVHSNGNTYLEWYLQKPGQSPKLLIYKVSNRFSGVPDRFSGSGSGTDFTLKISRVEAEDLGVYYCFQGSHVPFTFGSGTKLEIK

percent of cells in the positive gate: 0.48%
B2: S7F11 recombinant anti-UPK2 monoclonal antibody (murine-human chimeric) (antibody, V domains shown)
VH: EVQLKESGAELVRSGASVKLSCTASAFNIKDYYMNWMKQRPEQGLEWIGWIDPENGDTKYAPKFQGKATITADTSSSTAYLQLTSLTSEDSAVFYCNVNYKYDWFAYWGQGTLVTVSA
VL: DVVMTQSQKFMSTSVGDRVSVTCKASQNVGTNVAWYQQKPGQSPRALIYSASYRYSGVPDRFTGSGSGTDFTLTISNVQSEDLAEYFCQQYNTYPWTFGGGTKLEIK

percent of cells in the positive gate: 0.19%
B3: S7F9 recombinant anti-UPK2 monoclonal antibody (murine-human chimeric) (antibody, V domains shown)
VH: QVQLKQSGPGLVRPGASVTMSCKASGYTFTSNWMHWVKQRPGQGLDWIGMIDPSNSDTRLNQKFKDKATLNVDKSSNTAYMQLSSLTSDDSAVYYCMRGGGDYWGQGTTLTVSS
VL: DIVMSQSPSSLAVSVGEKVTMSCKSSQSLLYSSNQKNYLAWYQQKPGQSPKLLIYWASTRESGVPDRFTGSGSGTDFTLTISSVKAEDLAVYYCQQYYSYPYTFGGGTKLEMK

percent of cells in the positive gate: 0.06%
B4: S2B7 recombinant anti-UPK2 monoclonal antibody (murine-human chimeric) (antibody, V domains shown)
VH: EVQLQQSGAELMKPGTSVKMSCKAAGYTFTKYWIGWVKQRPGHGLEWIGDIYPGGGYTLFNEKFKGKATLTADTSSSTAYMQLSSLTSEDSAIYYCARGNYWGQGTTLTVSS
VL: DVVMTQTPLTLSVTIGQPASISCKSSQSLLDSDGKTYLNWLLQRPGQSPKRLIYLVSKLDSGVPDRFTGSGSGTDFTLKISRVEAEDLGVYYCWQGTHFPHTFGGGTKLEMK

percent of cells in the positive gate: 0.07%
B5: S3D10 recombinant anti-UPK2 monoclonal antibody (murine-human chimeric) (antibody, V domains shown)
VH: QVQLQQSGAELVRSGASVKLSCTDSGFNIKDYYMNWVKQRPEQGLEWIGWIDPENGVTQYDPKFQGKATVTADTFSNTAYLQLSSLTSEDTAVYYCNANYKYDWFGYWGQGTLVTVSA
VL: NIVMTQSPSSLSASLGERVSLTCRASQEISGYLSWLQQKPDGTIKRLIYAASTLDSGVPERFSGSRSGSDYSLTISSLESEDFADYYCLQYASYPWTFGGGTKLEMK
